Assay results: patent US20210079089A1 (SURROZEN OPERATING, published 2021)
Where a chain is given by its changes, count along the chain named. In names and notes the source's numbering stands.

T1: LRP6E3E4_O75581_631-1246 (Homo sapiens (Human), UniProt O75581 631-1246, biotinylated in the BLI/SPR assays (C-terminal biotin acceptor peptide))
T1 construct: The entry holds residues 631-1246 of UniProt O75581 followed by a biotin acceptor peptide and eight His
T1 sequence: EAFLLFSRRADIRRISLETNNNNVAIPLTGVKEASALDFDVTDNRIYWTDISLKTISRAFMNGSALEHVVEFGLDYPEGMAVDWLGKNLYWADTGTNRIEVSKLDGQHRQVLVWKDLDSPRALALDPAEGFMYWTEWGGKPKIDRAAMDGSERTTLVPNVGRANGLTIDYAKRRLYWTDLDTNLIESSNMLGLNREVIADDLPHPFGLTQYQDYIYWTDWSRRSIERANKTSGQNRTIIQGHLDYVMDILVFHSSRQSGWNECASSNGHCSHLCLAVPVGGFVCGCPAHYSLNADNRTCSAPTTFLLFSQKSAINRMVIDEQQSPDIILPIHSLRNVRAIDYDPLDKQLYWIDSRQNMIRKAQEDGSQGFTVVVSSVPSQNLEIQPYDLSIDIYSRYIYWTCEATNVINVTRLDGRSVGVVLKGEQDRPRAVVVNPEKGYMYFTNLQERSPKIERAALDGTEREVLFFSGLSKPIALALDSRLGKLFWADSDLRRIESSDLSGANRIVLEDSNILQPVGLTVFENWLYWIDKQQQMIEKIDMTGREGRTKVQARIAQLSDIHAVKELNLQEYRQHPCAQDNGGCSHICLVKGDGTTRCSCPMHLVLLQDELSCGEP

T2: biotinylated-LRP6 CRD (UniProt O75581 631-1246, limits assumed, biotinylated)
T2 construct: LRP6 has no CRD
T2 sequence (looked up): T1 sequence

B1: 009S-F04 (VHH)
VHH: AVQLVESGGGVVQAGDSLTLSCTMSGRSLSSFAMGWFRRAPGKEREFVARISRGDGYTDEADSVKGRFTISRDNAKNTVYLQMNNVGPEDTAVYHCAAVQAVIGGTLTTAYDYWGQGTLVTVSS
B2: 009S-A05 (VHH)
VHH: AVQLVDSGGGLVQAGDSLTLSCAASGRTFSDYSMGWFRQAPGKEREFVAGISWIADNRYYADVVKGRFTISRDNAKNTVYLQMNSLKPEDTAVYYCTAGRSRYLYGSSLNGPYDYWGQGTQVTVSS
B3: 009S-E04 K1A (VHH)
VHH: DVQLVESGGGLVQAGGSLRLACAGSGRIFAIYDIAWYRHPPGNQRELVAMIRPVVTEIDYADSVKGRFTISRNNAMKTVYLQMNNLKPEDTAVYYCNAARPWGSRDEYWGQGTQVTVSS
B4: 009S-E04 R7A (VHH)
VHH: B3 VHH with A99K, R105A
B5: 009S-E04 G5A (VHH)
VHH: B3 VHH with A99K, G103A
B6: 009S-E04 W4A (VHH)
VHH: B3 VHH with A99K, W102A
B7: 009S-E04 R2A (VHH)
VHH: B3 VHH with A99K, R100A
B8: 009S-E04 P3A (VHH)
VHH: B3 VHH with A99K, P101A
B9: 009S-E04 D8A (VHH)
VHH: B3 VHH with A99K, D106A
B10: 009S-E04 Y10A (VHH)
VHH: B3 VHH with A99K, Y108A
B11: 009S-E04 E9A (VHH)
VHH: B3 VHH with A99K, E107A
B12: 009S-E04 S6A (VHH)
VHH: B3 VHH with A99K, S104A
B13: 013S-G04 (HC SEQ ID NO 19) (VHH)
VHH: AVQLVESGGGLVQAGGSLRLACAGSGRIFAIYDIAWYRQAPGNQRELVATIRPVVSETTYADAVKGRFTISRSNAMKTVYLQMNSLKSEDTAIYYCNAKRPWGTRDEYWGQGTLVTVSS
B14: 013S-C05 (HC SEQ ID NO 22) (VHH)
VHH: EVQLVESGGGLVQPGGSLRLSCAVSRNIFPIDDMSWYRQAPGKQRELVATVTSGGRINYADSVKGRFTISRDGARRTIDLQMNNLKPEDTAVYYCNVDRTLYGKYKEYWGQGTLVTVSS
B15: 013S-A05 (VHH)
VHH: EVQLVESGGGLVQAGGSLRLSCATSGRTFNTYAMGWFRQAPGKEREFVASVSWRYDRTYYTDTVKGRFTISRDNAKNTVYLQMNSLKPEDTAVYFCAADTNWRAGPRVGIDEYAYWGQGTLVTVSS
B16: 013S-D05 (HC SEQ ID NO 23) (VHH)
VHH: QVKLEESGGGLVQAGGSLRLSCAASGRIFSIYDMGWFRQAPGKEREFVSGIRWSGGTSYADSVKGRFTISKDNAKNTIYLQMNNLKAEDTAVYYCGSRGYWGQGTLVTVSS
B17: 013S-H04 (HC SEQ ID NO 20) (VHH)
VHH: AVQLVDSGGGLVQAGGSLRLSCAVSGRTFSMYDMGWFRQAPGKEREFVASIRWSSGNTWYADSMKGRFTISRDNAKNTVYLQMNSLKPEDTAVYYCYANIYYTRRAPEEYWGQGTLVTVSS

Target: T1, LRP6E3E4_O75581_631-1246
Experiment: Octet BLI, affinity class
Description: (§1) Binding kinetics of antibody fragments to LRP5 extracellular domain (LRP5 ECD) and/or LRP6 extracellular domain (LRP6 ECD) protein targets was determined by bio-layer interferometry (BLI) using Octet Red 96 (PALL ForteBio, Fremont, Calif.) instruments at 30° C., 1000 rpm with streptavidin (SA) biosensors. C-terminal biotinylated LRP ECD recombinant protein was diluted to 20 nM in the running buffer (PBS, 0.05% Tween-20, 0.5% BSA, pH 7.2) and captured to the SA biosensor until coupling length reached 0.2 nm. Following capture of the LRP5 or LRP6, the SA biosensor with captured biotinylated-LRP5 or biotinylated LRP6 was dipped into wells containing the relevant antibody fragment at […] (0, 1.37, 4.12, 12.4, 37, 111.1, 333.3, 1000 nM) in running buffer, plus a well with only running buffer as a reference channel. KD was determined by global fitting, 1:1 binding model according to manufacturer recommended settings.

Kd [nM]	Binder
> 500	B1
> 500	B2

Target: T2, biotinylated-LRP6 CRD
Experiment: Octet BLI, biotinylated LRP6
Description: as §1
One antibody fragment, 009S-E04, was selected for alanine-scanning mutagenesis of CDRs, and the respective LRP6 binding affinities of the various mutants were determined by Octet BLI as described in Example 1.

Kd [nM]	Binder
< 100	B3
< 100	B4
< 100	B5
< 100	B6
< 100	B7
< 100	B8
< 100	B9
< 100	B10
< 100	B11
< 100	B12

Target: T1, LRP6E3E4_O75581_631-1246
Experiment: Octet BLI or BIAcore SPR

Kd [nM]	Binder
< 500	B13
< 500	B14
> 500	B15
> 500	B1
> 500	B2
< 500	B16
< 500	B17
